Measurements taken from publication PMC12394075.

Target: HA-GSGS-tagged rat mGluR2 with TAG at Ala548 (CRD linker sensor) (rat) (UniProt P31421)

Sequence of Heterotrimeric Gi1 (P63096 whole entry, looked up, one chain of several): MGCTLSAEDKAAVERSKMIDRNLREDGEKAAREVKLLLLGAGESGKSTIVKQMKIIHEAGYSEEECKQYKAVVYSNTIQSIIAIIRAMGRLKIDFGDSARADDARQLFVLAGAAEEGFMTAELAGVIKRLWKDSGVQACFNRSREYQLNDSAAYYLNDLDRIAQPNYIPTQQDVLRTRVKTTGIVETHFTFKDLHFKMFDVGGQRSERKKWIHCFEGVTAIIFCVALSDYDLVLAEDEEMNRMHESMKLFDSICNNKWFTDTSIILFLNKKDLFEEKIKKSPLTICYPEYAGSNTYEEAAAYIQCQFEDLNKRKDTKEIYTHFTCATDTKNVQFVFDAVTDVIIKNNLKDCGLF

## Heterotrimeric Gi1 (from UniProt P63096 1-354) (complex)
  smFRET of the CRD sensor with 10 mM glutamate and 4–5 µM Gi1 heterotrimer: occupancy of the high-FRET state (E ~ 0.85): 20%
